Results from the supplement of paper PMC10724198.

Assays:
Saccharomyces cerevisiae [1] = assay: protein stability index of tFT-peptide fusion in deletion strain of DAS1 (PSI (0-1 scale)); higher = more stable (slower turnover)
Method: (§1)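 MPS profiling in S. cerevisiae of two library types built from selected 12-aa C-degron peptides (IN1, IN2, LN1, LN3, VN2, R1-R5, W1-W3, Atg1 and Rpa12 C-termini): saturation mutagenesis libraries and C-terminal +1 capping libraries (13 aa). Each peptide is fused to the C-terminus of a sfGFP-mCherry timer, after a GGGS linker. Cells are FACS-sorted into 8 mCherry/sfGFP bins and sequenced. PSI runs from 0 (unstable) to 1 (stable), measured once in wild type and in the das1Δ or doa10Δ background.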

Saccharomyces cerevisiae [2] = assay: protein stability index of tFT-peptide fusion in wild type (PSI (0-1 scale)); higher = more stable (slower turnover); details: genetic background: wild type
Method: as §1
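Wherever protein stability index of tFT-peptide fusion in deletion strain of DAS1 is given: PSI is a weighted mean of each variant's read distribution over the sorted stability bins, computed only for variants having over 10 reads in total.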
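Wherever protein stability index of tFT-peptide fusion in wild type is given: PSI derived as read-weighted mean over the 8 sorting bins, only variants exceeding 10 total reads kept, mCherry placed adjacent to the peptide and sfGFP distal.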

Row | Sequence | protein stability index (Saccharomyces cerevisiae [1]) | protein stability index (Saccharomyces cerevisiae [2])
1 | CTSCGYKFRTNND | 0.7 | 0.692
2 | CTSCGYKFRTNNN | 0.677 | 0.674
3 | CTSCGYKFRTNT | 0.693 | 0.579
4 | CTSCGYKFTTNN | 0.704 | 0.675
5 | CTSCGYKIRTNN | 0.704 | 0.261
6 | CTSCGYQFRTNN | 0.692 | 0.496
7 | CTSCGYSFRTNN | 0.695 | 0.391
8 | CTSCGYWFRTNN | 0.668 | 0.438
9 | CTSCMYKFRTNN | 0.689 | 0.207
10 | CTSCRYKFRTNN | 0.68 | 0.395
11 | FNMRWTFRYWVN | 0.518 | 0.0433
12 | FRGAVGGWRLVG | 0.685 | 0.192
13 | FSARWTFRYWVN | 0.553 | 0.0651
14 | FSMMWTFRYWVN | 0.354 | 0.0586
15 | FSMRWTERYWVN | 0.572 | 0.0612
16 | FSMRWTFCYWVN | 0.365 | 0.0818
17 | FSMRWTFFYWVN | 0.44 | 0.104
18 | FSMRWTFIYWVN | 0.263 | 0.0416
19 | FSMRWTFPYWVN | 0.601 | 0.079
20 | FSMRWTFRCWVN | 0.425 | 0.17
21 | FSMRWTFRTWVN | 0.475 | 0.181
22 | FSMRWTFRYEVN | 0.509 | 0.168
23 | FSMRWTFRYQVN | 0.539 | 0.0962

Row | Sequence | protein stability index (Saccharomyces cerevisiae [1]) | protein stability index (Saccharomyces cerevisiae [2])
24 | FSMRWTFRYWFN | 0.503 | 0.318
25 | FSMRWTFRYWGN | 0.547 | 0.19
26 | FSMRWTFRYWIN | 0.469 | 0.0567
27 | FSMRWTFRYWTN | 0.644 | 0.0691
28 | FSMRWTFRYWVNV | 0.5 | 0.147
29 | FSMRWTFRYWVP | 0.541 | 0.541
30 | FSMRWTFRYWVS | 0.547 | 0.181
31 | FSMRWTFRYWVW | 0.377 | 0.195
32 | FSMRWTFRYWWN | 0.497 | 0.271
33 | FSMRWTIRYWVN | 0.38 | 0.0535
34 | FSMRWTLRYWVN | 0.438 | 0.0387
35 | FSTRWTFRYWVN | 0.62 | 0.0442
36 | FSWRWTFRYWVN | 0.756 | 0.0592
37 | HRGAVGGWRLVG | 0.665 | 0.172
38 | HTSCGYKFRTNN | 0.677 | 0.215
39 | KCHKKGQKQKIN | 0.592 | 0.342
40 | KKDKKGQKQKIN | 0.601 | 0.104
41 | KKHHKGQKQKIN | 0.588 | 0.0513
42 | KKHKKFQKQKIN | 0.599 | 0.0762
43 | KKHKKGGKQKIN | 0.653 | 0.169
44 | KKHKKGKKQKIN | 0.579 | 0.0795
45 | KKHKKGQGQKIN | 0.59 | 0.42
46 | KKHKKGQKHKIN | 0.588 | 0.228

Row | Sequence | protein stability index (Saccharomyces cerevisiae [1]) | protein stability index (Saccharomyces cerevisiae [2])
47 | KKHKKGQKQCIN | 0.585 | 0.26
48 | KKHKKGQKQKCN | 0.584 | 0.312
49 | KKHKKGQKQKIC | 0.61 | 0.0636
50 | KKHKKGQKQKID | 0.611 | 0.547
51 | KKHKKGQKQKINS | 0.668 | 0.126
52 | KKHKKGQKQKPN | 0.722 | 0.617
53 | KKHKKGQKQLIN | 0.627 | 0.335
54 | KKHKKGQKQTIN | 0.571 | 0.362
55 | KKHKKGQKWKIN | 0.612 | 0.102
56 | KKHKKGQSQKIN | 0.676 | 0.204
57 | KKHKKGTKQKIN | 0.608 | 0.0759
58 | KKHKKGWKQKIN | 0.682 | 0.0739
59 | KKHKKGYKQKIN | 0.607 | 0.113
60 | KKHKKPQKQKIN | 0.659 | 0.0387
61 | KKHKMGQKQKIN | 0.623 | 0.0496
62 | KKKKKGQKQKIN | 0.567 | 0.164
63 | KKMKKGQKQKIN | 0.758 | 0.0965
64 | KMHKKGQKQKIN | 0.857 | 0.1
65 | LHILRQKMNHQN | 0.662 | 0.105
66 | LKILIQKMNHQN | 0.695 | 0.217
67 | LKILRGKMNHQN | 0.674 | 0.297
68 | LKILRQKMCHQN | 0.68 | 0.217
69 | LKILRQKMGHQN | 0.672 | 0.541

Row | Sequence | protein stability index (Saccharomyces cerevisiae [1]) | protein stability index (Saccharomyces cerevisiae [2])
70 | LKILRQKMNGQN | 0.659 | 0.353
71 | LKILRQKMNHPN | 0.688 | 0.672
72 | LKILRQKMNHQI | 0.67 | 0.179
73 | LKILRQKMNHQL | 0.67 | 0.172
74 | LKILRQKMNHQNG | 0.662 | 0.657
75 | LKILRQKMNHQNI | 0.685 | 0.65
76 | LKILRQKMNHQNM | 0.592 | 0.601
77 | LKILRQKMNHQNW | 0.67 | 0.659
78 | LKILRQKMNHQP | 0.677 | 0.373
79 | LKILRQKMNNQN | 0.707 | 0.267
80 | LKILRQKMTHQN | 0.688 | 0.273
81 | LKILRQKQNHQN | 0.64 | 0.302
82 | LKILRQKWNHQN | 0.662 | 0.194
83 | LKILRQKYNHQN | 0.7 | 0.189
84 | LKILRQQMNHQN | 0.584 | 0.206
85 | LKINRQKMNHQN | 0.682 | 0.209
86 | LKIRRQKMNHQN | 0.687 | 0.246
87 | LKITRQKMNHQN | 0.674 | 0.229
88 | LVILRQKMNHQN | 0.675 | 0.135
89 | LVVSLSCVACIN | 0.0593 | 0.0181
